Data from patent US20220153821A1.

Legend:
[1] = target: pHrodo-labeled 4R0N human tau P301L soluble oligomer (human), P10636; test: cell-based or functional assay
[2] = target: recombinant human tau (human) (UniProt P10636); test: SPR, Biacore T200: antibody captured on anti-mouse CM5 chip, recombinant human tau 10-0.14 nM as analyte, global 1:1 fit
recombinant human tau (human), sequence (P10636 other isoform, or with tags, fused parts or gaps limits assumed): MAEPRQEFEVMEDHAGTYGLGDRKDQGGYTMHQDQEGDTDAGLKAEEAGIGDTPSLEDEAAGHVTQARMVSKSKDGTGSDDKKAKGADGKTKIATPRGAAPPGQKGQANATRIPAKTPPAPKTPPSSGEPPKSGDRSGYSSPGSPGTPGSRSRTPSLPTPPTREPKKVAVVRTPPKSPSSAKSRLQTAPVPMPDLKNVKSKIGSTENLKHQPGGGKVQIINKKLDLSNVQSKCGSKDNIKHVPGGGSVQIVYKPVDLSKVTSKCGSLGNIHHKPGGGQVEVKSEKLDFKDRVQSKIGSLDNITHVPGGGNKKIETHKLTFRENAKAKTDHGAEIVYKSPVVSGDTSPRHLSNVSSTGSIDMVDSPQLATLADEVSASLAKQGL

pHrodo-labeled 4R0N human tau P301L soluble oligomer (human), P10636, sequence (P10636 other isoform, or with tags, fused parts or gaps P301L P301L): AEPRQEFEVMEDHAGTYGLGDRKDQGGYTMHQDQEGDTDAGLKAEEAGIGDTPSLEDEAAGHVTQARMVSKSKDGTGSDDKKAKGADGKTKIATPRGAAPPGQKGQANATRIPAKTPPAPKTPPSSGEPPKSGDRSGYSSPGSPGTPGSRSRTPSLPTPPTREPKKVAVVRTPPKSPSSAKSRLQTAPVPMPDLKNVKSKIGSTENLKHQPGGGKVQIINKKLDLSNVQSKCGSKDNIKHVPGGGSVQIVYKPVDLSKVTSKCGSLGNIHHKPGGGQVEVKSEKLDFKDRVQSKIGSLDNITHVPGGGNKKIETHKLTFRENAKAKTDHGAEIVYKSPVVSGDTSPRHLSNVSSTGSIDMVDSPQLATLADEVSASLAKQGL

Inhibition of cell based internalization (at 133 nM antibody concentration, % of inhibition of maximal fluorescent signal) [1] [%] | Binder | also measured
80 | Hu3D6VHvb1 / Hu3D6VLvb1 (antibody, V domains shown, here or on the partner: pHrodo-labeled) VH: QVQLQQSGAELVKPGASVKLSCTASGFNIKDYYLHWVKQRPEQGLEWIGWIDPENGDTVYDPKFQGKATITADTSSNTAYLQLSSLTSEDTAVYFCSTLDFWGQGTTLTVSS VL: not shown | 
 | 7G6 (antibody, from another filing, V domains shown) VH: QVQLLQPGAELVKPGASVIMSCKASGYTFTTYWITWVKQRPGQGLEWIGDIYPGSSICNYNEKFKSKATLTVDTSSSTAYMQLNSLTSEDSAVYYCAREDGYDAWFAYWGQGTLVTVSA VL: DVLMTQTPLSLPVSLGDQASISCRSSQSILHSNGNTYLEWYLQKPGQSPKLLICKVSNRFSGVPDRFSGSGSGTDFTLKISRVEAEDLGVYYCFQGSHVPFTFGSGTKLEIK | Kd [2]: 5.77 nM; koff [2]: 0.00332 s⁻¹; kon [2]: 576000 M⁻¹ s⁻¹
76.3 | Hu3D6VHvb6 / Hu3D6VLvb2 (antibody, V domains shown, here or on the partner: pHrodo-labeled) VH: EVQLVQSGAEVVKPGATVKISCKASGFTIKDYYLHWVRQRPGKGLEWIGWIDPEDGETVYDPKFQGRVTITADTSTDTAYMELSSLRSEDTAVYFCSTLDFWGQGTLVTVSS VL: not shown | 
74.5 | Hu3D6VHvb7 / Hu3D6VLvb2 (antibody, V domains shown, here or on the partner: pHrodo-labeled) VH: EVQLVQSGAEVVKPGATVKISCKASGFTIKDYYLHWVRQRPGKGLEWIGWIDPEDGETVYDPKFQGRVTITADTSTDTAYMELSSLRSEDTAVYYCSTLDFWGQGTLVTVSS VL: not shown | 
72.1 | Hu3D6VHvb3 / Hu3D6VLvb3 (antibody, V domains shown, here or on the partner: pHrodo-labeled) VH: EVQLVQSGAEVVKPGATVKISCKASGFNIKDYYLHWVRQRPGKGLEWIGWIDPENGDTIYDPKFQGRATITADTSTDTAYMELSSLRSEDTAVYYCSTLDFWGQGTLVTVSS VL: DVVMTQSPLSLSVTLGEPASISCRSSQSLLDSDGKTYLNWLQQRPGQSPRRLIYLVSKLDSGVPDRFSGSGSGTDFTLKISRVEAEDVGVYYCWQGTHFPYTFGQGTKLEIKR | 
61 | Hu3D6VHvb4 / Hu3D6VLvb2 (antibody, V domains shown, here or on the partner: pHrodo-labeled) VH: EVQLVQSGAEVVKPGATVKISCKASGFTIKDYYLHWVRQRPGKGLEWIGWIDPENGDTIYDPKFQGRVTITADTSTDTAYMELSSLRSEDTAVYYCSTLDFWGQGTLVTVSS VL: not shown | 
67.7 | Hu3D6VHvb5 / Hu3D6VLvb3 (antibody, V domains shown, here or on the partner: pHrodo-labeled) VH: EVQLVQSGAEVVKPGATVKISCKASGFTIKDYYLHWVRQRPGKGLEWIGWIDPEDGETIYDPKFQGRVTITADTSTDTAYMELSSLRSEDTAVYYCSTLDFWGQGTLVTVSS VL: DVVMTQSPLSLSVTLGEPASISCRSSQSLLDSDGKTYLNWLQQRPGQSPRRLIYLVSKLDSGVPDRFSGSGSGTDFTLKISRVEAEDVGVYYCWQGTHFPYTFGQGTKLEIKR | 
85 | Hu3D6VHvb2 / Hu3D6VLvb3 (antibody, V domains shown, here or on the partner: pHrodo-labeled) VH: EVQLVQSGAEVVKPGASVKISCKASGFNIKDYYLHWVRQRPGKGLEWIGWIDPENGDTVYDPKFQGRATITADTSTDTAYLELSSLTSEDTAVYFCSTLDFWGQGTLVTVSS VL: DVVMTQSPLSLSVTLGEPASISCRSSQSLLDSDGKTYLNWLQQRPGQSPRRLIYLVSKLDSGVPDRFSGSGSGTDFTLKISRVEAEDVGVYYCWQGTHFPYTFGQGTKLEIKR | 
49 | Hu3D6VHvb4 / Hu3D6VLvb3 (antibody, V domains shown, here or on the partner: pHrodo-labeled) VH: EVQLVQSGAEVVKPGATVKISCKASGFTIKDYYLHWVRQRPGKGLEWIGWIDPENGDTIYDPKFQGRVTITADTSTDTAYMELSSLRSEDTAVYYCSTLDFWGQGTLVTVSS VL: DVVMTQSPLSLSVTLGEPASISCRSSQSLLDSDGKTYLNWLQQRPGQSPRRLIYLVSKLDSGVPDRFSGSGSGTDFTLKISRVEAEDVGVYYCWQGTHFPYTFGQGTKLEIKR | 
66 | Hu3D6VHvb7 / Hu3D6VLvb3 (antibody, V domains shown, here or on the partner: pHrodo-labeled) VH: EVQLVQSGAEVVKPGATVKISCKASGFTIKDYYLHWVRQRPGKGLEWIGWIDPEDGETVYDPKFQGRVTITADTSTDTAYMELSSLRSEDTAVYYCSTLDFWGQGTLVTVSS VL: DVVMTQSPLSLSVTLGEPASISCRSSQSLLDSDGKTYLNWLQQRPGQSPRRLIYLVSKLDSGVPDRFSGSGSGTDFTLKISRVEAEDVGVYYCWQGTHFPYTFGQGTKLEIKR | 
67.2 | Hu3D6VHvb5 / Hu3D6VLvb2 (antibody, V domains shown, here or on the partner: pHrodo-labeled) VH: EVQLVQSGAEVVKPGATVKISCKASGFTIKDYYLHWVRQRPGKGLEWIGWIDPEDGETIYDPKFQGRVTITADTSTDTAYMELSSLRSEDTAVYYCSTLDFWGQGTLVTVSS VL: not shown | 
70 | Hu3D6VHvb6 / Hu3D6VLvb3 (antibody, V domains shown, here or on the partner: pHrodo-labeled) VH: EVQLVQSGAEVVKPGATVKISCKASGFTIKDYYLHWVRQRPGKGLEWIGWIDPEDGETVYDPKFQGRVTITADTSTDTAYMELSSLRSEDTAVYFCSTLDFWGQGTLVTVSS VL: DVVMTQSPLSLSVTLGEPASISCRSSQSLLDSDGKTYLNWLQQRPGQSPRRLIYLVSKLDSGVPDRFSGSGSGTDFTLKISRVEAEDVGVYYCWQGTHFPYTFGQGTKLEIKR | 
84.9 | Hu3D6VHvb2 / Hu3D6VLvb2 (antibody, V domains shown, here or on the partner: pHrodo-labeled) VH: EVQLVQSGAEVVKPGASVKISCKASGFNIKDYYLHWVRQRPGKGLEWIGWIDPENGDTVYDPKFQGRATITADTSTDTAYLELSSLTSEDTAVYFCSTLDFWGQGTLVTVSS VL: not shown | 
71.2 | Hu3D6VHvb3 / Hu3D6VLvb2 (antibody, V domains shown, here or on the partner: pHrodo-labeled) VH: EVQLVQSGAEVVKPGATVKISCKASGFNIKDYYLHWVRQRPGKGLEWIGWIDPENGDTIYDPKFQGRATITADTSTDTAYMELSSLRSEDTAVYYCSTLDFWGQGTLVTVSS VL: not shown | 
